Molecular target: T1, IRF3 (human (endogenous in HEK293T)), Q14653
T1 chain: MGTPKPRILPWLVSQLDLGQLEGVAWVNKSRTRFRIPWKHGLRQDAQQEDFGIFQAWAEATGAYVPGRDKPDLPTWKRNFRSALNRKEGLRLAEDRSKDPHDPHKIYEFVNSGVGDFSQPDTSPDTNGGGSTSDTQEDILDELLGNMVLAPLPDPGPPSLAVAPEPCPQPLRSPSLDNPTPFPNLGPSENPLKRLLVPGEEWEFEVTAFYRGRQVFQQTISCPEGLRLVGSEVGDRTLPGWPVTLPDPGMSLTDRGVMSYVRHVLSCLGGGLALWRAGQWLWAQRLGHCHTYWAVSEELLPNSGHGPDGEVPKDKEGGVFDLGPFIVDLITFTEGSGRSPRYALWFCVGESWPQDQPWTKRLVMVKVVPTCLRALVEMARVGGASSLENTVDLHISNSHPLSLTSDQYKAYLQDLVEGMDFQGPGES
Assay: native gel or EMSA; cell-free assay: HEK293T S1 crude lysate with vRNA, 30 °C, 1 h; Native-PAGE and immunoblotting of IRF3
Conditions: remark: other sources report otherwise

stoichiometry N: 2
B1: IRF3, Q14653 1-427 (natural protein)
chain: T1 chain
